Source: patent publication US7354734B2, “Fungal proteins and nucleic acids encoding same” (priority 2003, dated 2008)
“Also recorded” adds a separate entry of the source.

Assays:
[1] = tested on: gliadin 14mer PQPQLPYPQPQLPY (fragment 82-95 of α/β gliadin AIV); format: biochemical, wheat; details: 4 h, 37° C.
[2] = tested on: gliadin 33mer (fragment 57-89 of gliadin MM1); experiment: Digestion of gliadin 33mer (RP-HPLC, ESI-MS); format: biochemical, wheat; details: 37° C.; for digestion of gliadin 33mer, mixed with ruDPPIV: enzyme plus ruDPPIV (DPPIV)
[3] = format: biochemical; details: for hydrolytic activity toward Ala-AMC in comparison to Leu-MCA used as a standard: substrate Ala-AMC 5 mM; for hydrolytic activity toward Ala-AMC in comparison to Leu-MCA used as a standard / hydrolytic activity toward Arg-AMC in comparison to Leu-MCA used as a standard / hydrolytic activity toward Asn-AMC in comparison to Leu-MCA used as a standard / hydrolytic activity toward Asp-AMC in comparison to Leu-MCA used as a standard / hydrolytic activity toward Cys-AMC in comparison to Leu-MCA used as a standard / hydrolytic activity toward Gln-AMC in comparison to Leu-MCA used as a standard / hydrolytic activity toward Glu-AMC in comparison to Leu-MCA used as a standard / hydrolytic activity toward Gly-AMC in comparison to Leu-MCA used as a standard / hydrolytic activity toward Gly-Pro-AMC in comparison to Leu-MCA used as a standard / hydrolytic activity toward His-AMC in comparison to Leu-MCA used as a standard / hydrolytic activity toward Hyp-AMC in comparison to Leu-MCA used as a standard / hydrolytic activity toward Ile-AMC in comparison to Leu-MCA used as a standard / hydrolytic activity toward Leu-AMC in comparison to Leu-MCA used as a standard / hydrolytic activity toward Lys-AMC in comparison to Leu-MCA used as a standard / hydrolytic activity toward Met-AMC in comparison to Leu-MCA used as a standard / hydrolytic activity toward Phe-AMC in comparison to Leu-MCA used as a standard / hydrolytic activity toward Pro-AMC in comparison to Leu-MCA used as a standard / hydrolytic activity toward Pyr-AMC in comparison to Leu-MCA used as a standard / hydrolytic activity toward Ser-AMC in comparison to Leu-MCA used as a standard / hydrolytic activity toward Thr-AMC in comparison to Leu-MCA used as a standard / hydrolytic activity toward Val-AMC in comparison to Leu-MCA used as a standard: 37° C., 60 min; for hydrolytic activity toward Arg-AMC in comparison to Leu-MCA used as a standard: substrate Arg-AMC 5 mM; for hydrolytic activity toward Asn-AMC in comparison to Leu-MCA used as a standard: substrate Asn-AMC 5 mM; for hydrolytic activity toward Asp-AMC in comparison to Leu-MCA used as a standard: substrate Asp-AMC 5 mM; for hydrolytic activity toward Cys-AMC in comparison to Leu-MCA used as a standard: substrate Cys-AMC 5 mM; for hydrolytic activity toward Gln-AMC in comparison to Leu-MCA used as a standard: substrate Gln-AMC 5 mM; for hydrolytic activity toward Glu-AMC in comparison to Leu-MCA used as a standard: substrate Glu-AMC 5 mM; for hydrolytic activity toward Gly-AMC in comparison to Leu-MCA used as a standard: substrate Gly-AMC 5 mM; for hydrolytic activity toward Gly-Pro-AMC in comparison to Leu-MCA used as a standard: substrate Gly-Pro-AMC 5 mM; for hydrolytic activity toward His-AMC in comparison to Leu-MCA used as a standard: substrate His-AMC 5 mM; for hydrolytic activity toward Hyp-AMC in comparison to Leu-MCA used as a standard: substrate Hyp-AMC 5 mM; for hydrolytic activity toward Ile-AMC in comparison to Leu-MCA used as a standard: substrate Ile-AMC 5 mM; for hydrolysis of Leu-AMC: substrate Leu-AMC; for hydrolytic activity toward Leu-AMC in comparison to Leu-MCA used as a standard: substrate Leu-AMC 5 mM; for hydrolytic activity toward Lys-AMC in comparison to Leu-MCA used as a standard: substrate Lys-AMC 5 mM; for hydrolytic activity toward Met-AMC in comparison to Leu-MCA used as a standard: substrate Met-AMC 5 mM; for hydrolytic activity toward Phe-AMC in comparison to Leu-MCA used as a standard: substrate Phe-AMC 5 mM; for hydrolytic activity toward Pro-AMC in comparison to Leu-MCA used as a standard: substrate Pro-AMC 5 mM; for hydrolytic activity toward Pyr-AMC in comparison to Leu-MCA used as a standard: substrate Pyr-AMC 5 mM; for hydrolytic activity toward Ser-AMC in comparison to Leu-MCA used as a standard: substrate Ser-AMC 5 mM; for hydrolytic activity toward Thr-AMC in comparison to Leu-MCA used as a standard: substrate Thr-AMC 5 mM; for hydrolytic activity toward Val-AMC in comparison to Leu-MCA used as a standard: substrate Val-AMC 5 mM
[4] = format: biochemical; details: substrate Lys(Abz)Pro-PropNA 5 mM, 37° C., 60 min

ruDPPIV: T. rubrum dipeptidylpeptidase IV (SEQ ID NO: 35)
digestion of gliadin 14mer, enzyme alone [1]: not able to hydrolyse
digestion of gliadin 33mer, enzyme alone [2]: not a substrate

B1: pkLAP: commercially available microsomal LAP from porcine kidney (MEROPS>M1 family), Sigma (protein, UniProt P15145 2-963, looked up)
Aminopeptidase N: AKGFYISKALGILGILLGVAAVATIIALSVVYAQEKNKNAEHVPQAPTSPTITTTAAITLDQSKPWNRYRLPTTLLPDSYNVTLRPYLTPNADGLYIFKGKSIVRLLCQEPTDVIIIHSKKLNYTTQGHMVVLRGVGDSQVPEIDRTELVELTEYLVVHLKGSLQPGHMYEMESEFQGELADDLAGFYRSEYMEGNVKKVLATTQMQSTDARKSFPCFDEPAMKATFNITLIHPNNLTALSNMPPKGSSTPLAEDPNWSVTEFETTPVMSTYLLAYIVSEFQSVNETAQNGVLIRIWARPNAIAEGHGMYALNVTGPILNFFANHYNTSYPLPKSDQIALPDFNAGAMENWGLVTYRENALLFDPQSSSISNKERVVTVIAHELAHQWFGNLVTLAWWNDLWLNEGFASYVEYLGADHAEPTWNLKDLIVPGDVYRVMAVDALASSHPLTTPAEEVNTPAQISEMFDSISYSKGASVIRMLSNFLTEDLFKEGLASYLHAFAYQNTTYLDLWEHLQKAVDAQTSIRLPDTVRAIMDRWTLQMGFPVITVDTKTGNISQKHFLLDSESNVTRSSAFDYLWIVPISSIKNGVMQDHYWLRDVSQAQNDLFKTASDDWVLLNVNVTGYFQVNYDEDNWRMIQHQLQTNLSVIPVINRAQVIYDSFNLATAHMVPVTLALDNTLFLNGEKEYMPWQAALSSLSYFSLMFDRSEVYGPMKKYLRKQVEPLFQHFETLTKNWTERPENLMDQYSEINAISTACSNGLPQCENLAKTLFDQWMSDPENNPIHPNLRSTIYCNAIAQGGQDQWDFAWGQLQQAQLVNEADKLRSALACSNEVWLLNRYLGYTLNPDLIRKQDATSTINSIASNVIGQPLAWDFVQSNWKKLFQDYGGGSFSFSNLIQGVTRRFSSEFELQQLEQFKKNNMDVGFGSGTRALEQALEKTKANIKWVKENKEVVLNWFIEHS
hydrolytic activity toward Ala-AMC ([3]; compared to Leu-AMC): extremely high efficiency
hydrolytic activity toward Arg-AMC ([3]; compared to Leu-AMC): extremely high efficiency
hydrolytic activity toward Ala-AMC in comparison to Leu-MCA used as a standard [3]: 584.7%
hydrolytic activity toward Arg-AMC in comparison to Leu-MCA used as a standard [3]: 174.8%
hydrolytic activity toward Asn-AMC in comparison to Leu-MCA used as a standard [3]: 33.9%
hydrolytic activity toward Asp-AMC in comparison to Leu-MCA used as a standard [3]: 0.9%
hydrolytic activity toward Cys-AMC in comparison to Leu-MCA used as a standard [3]: 35.5%
hydrolytic activity toward Gln-AMC in comparison to Leu-MCA used as a standard [3]: 50.7%
hydrolytic activity toward Glu-AMC in comparison to Leu-MCA used as a standard [3]: 4.7%
hydrolytic activity toward Gly-AMC in comparison to Leu-MCA used as a standard [3]: 74.8%
hydrolytic activity toward Gly-Pro-AMC in comparison to Leu-MCA used as a standard [3]: 16.7%
hydrolytic activity toward His-AMC in comparison to Leu-MCA used as a standard [3]: 17.6%
hydrolytic activity toward Hyp-AMC in comparison to Leu-MCA used as a standard [3]: 1.7%
hydrolytic activity toward Ile-AMC in comparison to Leu-MCA used as a standard [3]: 6.3%
hydrolysis of Leu-AMC [3]: efficiently hydrolyzed; also recorded: common preference
hydrolytic activity toward Leu-AMC in comparison to Leu-MCA used as a standard [3]: 100.0%
hydrolytic activity toward Lys-AMC in comparison to Leu-MCA used as a standard [3]: 70.1%
hydrolytic activity toward Met-AMC in comparison to Leu-MCA used as a standard [3]: 46.1%
hydrolytic activity toward Phe-AMC in comparison to Leu-MCA used as a standard [3]: 184.4%
hydrolytic activity toward Pro-AMC in comparison to Leu-MCA used as a standard [3]: 7.9%
hydrolytic activity toward Pyr-AMC in comparison to Leu-MCA used as a standard [3]: 0.0%
hydrolytic activity toward Ser-AMC in comparison to Leu-MCA used as a standard [3]: 24.6%
hydrolytic activity toward Thr-AMC in comparison to Leu-MCA used as a standard [3]: 4.4%
hydrolytic activity toward Val-AMC in comparison to Leu-MCA used as a standard [3]: 4.0%
digestion of gliadin 33mer, enzyme alone [2]: partial deletion of N-terminal Leu and C-terminal Phe
digestion of gliadin 33mer, mixed with ruDPPIV [2]: does not modify the profile
hydrolytic activity toward Lys(Abz)Pro-PropNA in comparison to Leu-MCA used as a standard [4]: 0.0%

B2: fuLAP2: A. fumigatus leucine aminopeptidase, 498 amino acid residues (SEQ ID NO: 9) (protein, listed as Aspergillus fumigatus)
chain: MKLLYLTSFASLAVANGPGWDWKPRVHPKVLPQMIHLWDLLQGAQQLEDFAYAYPERNRVFGGRAHEDTVNYLYRELKKTGYYDVYKQPQVHQWTRADQALTVDGQSYDATTMTYSPSVNATAPLAVVNNLGCVEADYPADLTGKIALISRGECTFATKSVLSAKAGAAAALVYNNIEGSMAGTLGGATSELGAYAPIAGISLADGQALIQMIQAGTVTANLWIDSQVENRTTYNVIAQTKGGDPNNVVALGGHTDSVEAGPGINDDGSGIISNLVVAKALTRFSVKNAVRFCFWTAEEFGLLGSNYYVNSLNATEQAKIRLYLNFDMIASPNYALMIYDGDGSAFNLTGPAGSAQIERLFEDYYTSIRKPFVPTEFNGRSDYQAFILNGIPAGGLFTGAEAIKTEEQAQLFGGQAGVALDANYHAKGDNMTNLNREAFLINSRATAFAVATYANSLDSIPPRNMTTVVKRSQLEQAMKRTPHTHTGGTGCYKDRVEQ
hydrolytic activity toward Ala-AMC in comparison to Leu-MCA used as a standard [3]: 11.7%
hydrolytic activity toward Arg-AMC in comparison to Leu-MCA used as a standard [3]: 2.3%
hydrolytic activity toward Asn-AMC in comparison to Leu-MCA used as a standard [3]: 73.5%
hydrolytic activity toward Asp-AMC in comparison to Leu-MCA used as a standard [3]: 0.3%
hydrolytic activity toward Cys-AMC in comparison to Leu-MCA used as a standard [3]: 2.1%
hydrolytic activity toward Gln-AMC in comparison to Leu-MCA used as a standard [3]: 37.0%
hydrolytic activity toward Glu-AMC in comparison to Leu-MCA used as a standard [3]: 1.1%
hydrolytic activity toward Gly-AMC in comparison to Leu-MCA used as a standard [3]: 2.2%
hydrolytic activity toward Gly-Pro-AMC in comparison to Leu-MCA used as a standard [3]: 74.1%
hydrolytic activity toward His-AMC in comparison to Leu-MCA used as a standard [3]: 1.9%
hydrolytic activity toward Hyp-AMC in comparison to Leu-MCA used as a standard [3]: 13.3%
hydrolytic activity toward Ile-AMC in comparison to Leu-MCA used as a standard [3]: 1.8%
hydrolysis of Leu-AMC [3]: efficiently hydrolyzed; also recorded: common preference
hydrolytic activity toward Leu-AMC in comparison to Leu-MCA used as a standard [3]: 100.0%
hydrolytic activity toward Lys-AMC in comparison to Leu-MCA used as a standard [3]: 2.3%
hydrolytic activity toward Met-AMC in comparison to Leu-MCA used as a standard [3]: 89.5%
hydrolytic activity toward Phe-AMC in comparison to Leu-MCA used as a standard [3]: 8.9%
hydrolytic activity toward Pro-AMC in comparison to Leu-MCA used as a standard [3]: 7.4%
hydrolytic activity toward Pyr-AMC in comparison to Leu-MCA used as a standard [3]: 0.0%
hydrolytic activity toward Ser-AMC in comparison to Leu-MCA used as a standard [3]: 10.3%
hydrolytic activity toward Thr-AMC in comparison to Leu-MCA used as a standard [3]: 0.1%
hydrolytic activity toward Val-AMC in comparison to Leu-MCA used as a standard [3]: 0.8%
digestion of gliadin 33mer, mixed with ruDPPIV [2]: same HPLC pattern
hydrolytic activity toward Lys(Abz)Pro-PropNA in comparison to Leu-MCA used as a standard [4]: 0.0%
